From publication PMC5296763, “Structural basis for redox sensitivity in Corynebacterium glutamicum diaminopimelate epimerase: an enzyme involved in L-lysine biosynthesis” (Scientific Reports, 2017) come the findings set out here.

Data set [1] concerns the target T1, CgDapF (Corynebacterium glutamicum, UniProt Q8NP73).
T1 construct: gene dapF
Description: X-ray crystal structure, […] A. The format is binding. As to conditions: crystallised with a 10 mM DAP isomer mixture (L,L, D,D, D,L), pH 9.0; only D,L-DAP density seen; active site.

Substrate in data set [2]: N[C@@H](CCC[C@H](N)C(=O)O)C(=O)O
Description: purified protein. It is filed as biochemical, Corynebacterium glutamicum. As to conditions: 0.1 M potassium phosphate, pH 8.0, room temperature, 3.45 uM enzyme, substrate named in the assay method.

Data set [3] concerns the molecule itself. Description: SEC; size-exclusion chromatography under both the oxidized and the reduced conditions; data not shown. For orientation: Size exclusion chromatography separates by hydrodynamic size, large species first.

Turning to `N[C@H](CCC[C@H](N)C(=O)O)C(=O)O` [D,L-DAP], in data set [1], the “X-ray crystal structure, 2.6 A” value is given as “we determined the crystal structure of the protein in complex with the D,L-DAP product”.

B1: CgDapF (Corynebacterium glutamicum ATCC 13032) (protein)
chain: MNLTIPFAKGHATENDFIIIPDEDARLDLTPEMVVTLCDRRAGIGADGILRVVKAADVEGSTVDPSLWFMDYRNADGSLAEMCGNGVRLFAHWLYSRGLVDNTSFDIGTRAGVRHVDILQADQHSAQVRVDMGIPDVTGLSTCDINGQVFAGLGVDMGNPHLACVVPGLSASALADMELRAPTFDQEFFPHGVNVEIVTELEDDAVSMRVWERGVGETRSCGTGTVAAACAALADAGLGEGTVKVCVPGGEVEVQIFDDGSTLTGPSAIIALGEVQI
Take B1: in data set [2], the Michaelis-Menten constant (Km) was 1860 µM and the kcat was determined as 58 s⁻¹.

B2: Diaminopimelate epimerase (DapF) from Corynebacterium glutamicum (enzyme, UniProt Q8NP73 1-277, looked up)
chain: MNLTIPFAKGHATENDFIIIPDEDARLDLTPEMVVTLCDRRAGIGADGILRVVKAADVEGSTVDPSLWFMDYRNADGSLAEMCGNGVRLFAHWLYSRGLVDNTSFDIGTRAGVRHVDILQADQHSAQVRVDMGIPDVTGLSTCDINGQVFAGLGVDMGNPHLACVVPGLSASALADMELRAPTFDQEFFPHGVNVEIVTELEDDAVSMRVWERGVGETRSCGTGTVAAACAALADAGLGEGTVKVCVPGGEVEVQIFDDGSTLTGPSAIIALGEVQI
modifications: selenomethionine-substituted (SeMet derivative) in the crystals of the oxidized and reduced forms (5H2G, 5H2Y)
notes: Diaminopimelate epimerase (DapF, EC 5.1.1.7) of Corynebacterium glutamicum strain ATCC 13032, gene amplified from genomic DNA and cloned in pET30a; also called CgDapF; DAP epimerase; source: E. coli B834(DE3), purified (Ni-NTA, size-exclusion chromatography on Superdex 200); not shown: His tag (from the Ni-NTA purification)
Take B2: the “stoichiometry N” value in data set [3] amounted to 2.

For orientation: Km means the concentration of substrate that gives half-maximal velocity. The kcat is the maximal rate divided by the concentration of active sites. As a reminder, the stoichiometry N is the number of molecules, sites or subunits per partner or assembly.
